The numbers were not newly measured in patent publication US20050019270A1, “Formulation of powder containing nanoparticles for aerosol delivery to the lungs” (priority 2003, published 2005), which cites them from elsewhere.

For the data set the following is noted: spray drying with polysorbate 20 added.

Some results are limits rather than exact numbers.

For “recombinant human growth hormone: Protein in a prior spray drying study with polysorbate 20”, the surface aggregation is less than 2%.
